Measurements: the supplement of paper PMC10567573
± gives the standard deviation.

Assay: protein stability index of a GFP-peptide fusion (GPS, HEK-293T) (PSI 1-6); higher = more stable
[1] = treatment: DMSO, c terminus: a fixed tail appended
[2] = treatment: MLN4924 1 uM, 8 h, c terminus: a fixed tail appended
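Further: 24-mer peptide tiles fused after GFP, lentivirally expressed, FACS-sorted into six equal bins by GFP/DsRed ratio, decoded by Illumina sequencing, PSI is the read-weighted mean bin number.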

Sequence TVYKARDPHSGHFVALKSVRVPNG [CDK4] has a protein stability index [1] of 2.31 ± 0.48 and a protein stability index [2] of 2.68 ± 0.49.
TWGKNKPGIGAVILKRFCWLLLQ [FAN1] gave a protein stability index (treatment: DMSO, c terminus: native) of 3.45 ± 0.45 and a protein stability index (treatment: MLN4924 1 uM, 8 h, c terminus: native) of 2.87 ± 0.53.
For TWHDERFLYMLMEYVPGGELFSYL [PRKX], the protein stability index [1] was 2.85 ± 0.7 and the protein stability index [2] was 2.75 ± 0.35.
For TYVGALFNGLTLLLMAVVSMFTLP [RTN1], the protein stability index [1] was 3 ± 0.58 and the protein stability index [2] was 3.43 ± 0.38.
Sequence VCGKSFSRTTCLFLHLRTHTEERP [ZNF8] has a protein stability index [1] of 2.23 ± 0.56 and a protein stability index [2] of 1.93 ± 0.38.
VDADAGHNAWLSYSLLPQSTAPGL [PCDHGC5] showed a protein stability index [1] of 2.87 ± 0.33 and a protein stability index [2] of 3 ± 0.26.
Work on VEKEEEPDPEPPPVTPQVGEGRKS [SMG5] yielded a protein stability index [1] of 5.48 ± 0.13 and a protein stability index [2] of 5.53 ± 0.21.
In the case of VEVLGPYEPLLSRVQAALVWERPA [RETREG3], the protein stability index [1] is reported as 2.37 ± 0.39 and the protein stability index [2] is reported as 2.48 ± 0.24.
Work on VFSDTATPDIKSHYAFRIFDFDDD [CIB1] yielded a protein stability index [1] of 3.19 ± 0.27 and a protein stability index [2] of 3.18 ± 0.42.
Work on VFYLWSAIEIFRYSFYMLTCIDMD [HACD3] yielded a protein stability index [1] of 3.13 ± 0.15 and a protein stability index [2] of 3.5 ± 0.47.
VGGYGTRLRPLTLSTPKPLVDFCN [GMPPB] showed a protein stability index [1] of 2.41 ± 0.16 and a protein stability index [2] of 2.46 ± 0.14.
VGIFHLMQIAVPCAFLLLRLLVGL [TMEM175] showed a protein stability index [1] of 2.81 ± 0.45 and a protein stability index [2] of 2.82 ± 0.47.
Sequence VHQRTHTGEKPHTCSECGKGFIQK [ZNF649] has a protein stability index [1] of 3.67 ± 0.28 and a protein stability index [2] of 3.52 ± 0.58.
Work on VIEAIAQITVKALPKPPGTPVVTE [PTPRD] yielded a protein stability index [1] of 2.3 ± 0.4 and a protein stability index [2] of 2.16 ± 0.27.
For VIKYNVNDKFSFHEVKDNYIPVIK [RHOBTB3], the protein stability index [1] was 2.21 ± 0.44 and the protein stability index [2] was 2.75 ± 0.34.
Work on VKRLHEVGRTEPELLVAHAYTRYL [HMOX1] yielded a protein stability index [1] of 2.2 ± 0.26 and a protein stability index [2] of 2.4 ± 0.36.
For VLENNLEAVARHMLIFSLALEEPE [DNAAF3], the protein stability index [1] was 2.74 ± 1.1 and the protein stability index [2] was 2.52 ± 0.37.
In the case of VLEQEETAAASRERQEEQSAAIHI [EPB41L3], the protein stability index [1] is reported as 5.33 ± 0.24 and the protein stability index [2] is reported as 5.16 ± 0.23.
For VLGGFLYAVGGSDGTSPLNTVERY [KLHL20], the protein stability index [1] was 2.18 ± 0.32 and the protein stability index [2] was 2.47 ± 0.22.
For VLGIPLTLVMFQSLGERMNTFVRY [KCNK9], the protein stability index [1] was 3.24 ± 0.65 and the protein stability index [2] was 2.83 ± 0.48.
Work on VLSYLGLLSQEKLQEQHLSSPQGV [BCL2L13] yielded a protein stability index [1] of 2.29 ± 0.31 and a protein stability index [2] of 2.32 ± 0.38.
VLYLMMPIVNISEVLGPLCLMLLM [PHTF1] showed a protein stability index [1] of 3.07 ± 0.62 and a protein stability index [2] of 2.67 ± 0.47.
Sequence VMKLEISPHRKRSDDSDEDEPCAI [DLC1] has a protein stability index [1] of 5.21 ± 0.52 and a protein stability index [2] of 4.93 ± 0.28.
With VNKVCGAACSSKRSPIIDVKNDRD [SERPINB5] the protein stability index [1] was 3.77 ± 0.33 and the protein stability index [2] was 3.89 ± 0.15.
In the case of VPGHQTPSDLDQFSDSSLIEDSQA [LURAP1L], the protein stability index [1] is reported as 5.39 ± 0.15 and the protein stability index [2] is reported as 5.41 ± 0.17.
With VPGHRSERAIRTQPKQLIVDDLKG [SPRY1] the protein stability index [1] was 4.25 ± 0.34 and the protein stability index [2] was 4.13 ± 0.47.
Work on VQEHARCVHPRGGVIQSVSSWKHG [C18orf25] yielded a protein stability index [1] of 3.08 ± 0.28 and a protein stability index [2] of 3.03 ± 0.4.
In the case of VQFHRHHGQEGSILVTKVEEPSKY [GMPPB], the protein stability index [1] is reported as 3.45 ± 0.31 and the protein stability index [2] is reported as 3.58 ± 0.27.
Sequence VQQDPALSSNREAHQHRDKMQQSK [CSNK1G3] has a protein stability index [1] of 5.16 ± 0.54 and a protein stability index [2] of 5.27 ± 0.21.
In the case of VRGHHPKSGEEAVTVLEDLEKGLE [ZNF232], the protein stability index [1] is reported as 4.73 ± 0.21 and the protein stability index [2] is reported as 4.72 ± 0.63.
VRKHPAVKEKGSTLDLSDLEAEKL [SCD] gave a protein stability index [1] of 5.12 ± 0.3 and a protein stability index [2] of 4.82 ± 0.14.
Sequence VSLSLENRELWKEFSSVGTEMIIT [TBX6] has a protein stability index [1] of 2.71 ± 0.62 and a protein stability index [2] of 2.31 ± 0.45.
VSRLTDTTKFTGSHKERFDPSGKG [TPPP] gave a protein stability index [1] of 4.39 ± 0.1 and a protein stability index [2] of 4.5 ± 0.22.
Work on VSRREGALGWAPAAPPPLKDDPEG [ZBED3] yielded a protein stability index [1] of 5.24 ± 0.37 and a protein stability index [2] of 5.43 ± 0.12.
Work on VSSSEQLQSYQAEIIELRRTVNAL [KRT33B] yielded a protein stability index [1] of 3.12 ± 0.22 and a protein stability index [2] of 3.2 ± 0.42.
With VVNTDHGSPEQLQIPVTDSGRHIL [SDE2] the protein stability index [1] was 4.18 ± 0.15 and the protein stability index [2] was 4.29 ± 0.45.
VWDLNMEARPIETYQVHDYLRSKL [PPP2R2C] gave a protein stability index [1] of 2.42 ± 0.43 and a protein stability index [2] of 2.55 ± 0.095.
With VWNRKLDLLCKTSHLSDTGISALV [WDR41] the protein stability index [1] was 2.26 ± 0.27 and the protein stability index [2] was 2.2 ± 0.34.
Sequence VWTSPRRLVELAGQSLLKDEALAI [PRAME] has a protein stability index [1] of 3.36 ± 0.15 and a protein stability index [2] of 3.34 ± 0.21.
In the case of WAANAGVTASPPTDLIWKNQNSWG [LMNB1], the protein stability index [1] is reported as 2.46 ± 0.26 and the protein stability index [2] is reported as 2.48 ± 0.5.
For WELVVLGKLKWNLAAVTPHDFIEH [CCND2], the protein stability index [1] was 2.7 ± 0.71 and the protein stability index [2] was 2.62 ± 0.39.
WFKTRRKEMTQKLEALHLEALCEE [DENND6A] gave a protein stability index [1] of 3.29 ± 0.27 and a protein stability index [2] of 3.88 ± 0.42.
Sequence WFSDPSDTALLNLLPMLDALRFTA [CTDNEP1] has a protein stability index [1] of 2.73 ± 0.58 and a protein stability index [2] of 2.98 ± 0.67.
WGHCEVTMRYINGLDPEPLPLMDL [SPSB4] gave a protein stability index [1] of 2.49 ± 0.26 and a protein stability index [2] of 2.5 ± 0.4.
